B1: IgG Fc receptor II-b (protein, UniProt P31994 43-310, looked up)
Low affinity immunoglobulin …: TPAAPPKAVLKLEPQWINVLQEDSVTLTCRGTHSPESDSIQWFHNGNLIPTHTQPSYRFKANNNDSGEYTCQTGQTSLSDPVHLTVLSEWLVLQTPHLEFQEGETIVLRCHSWKDKPLVKVTFFQNGKSKKFSRSDPNFSIPQANHSHSGDYHCTGNIGYTLYSSKPVTITVQAPSSSPMGIIVAVVTGIAVAAIVAAVVALIYCRKKRISALPGYPECREMGETLPEKPANPTNPDEADKVGAENTITYSLLMHPDALEEPDDQNRI
B2: RGMB (protein, UniProt Q6NW40 46-413, looked up)
Repulsive guidance molecule B: GDCQQPAQCRIQKCTTDFVSLTSHLNSAVDGFDSEFCKALRAYAGCTQRTSKACRGNLVYHSAVLGISDLMSQRNCSKDGPTSSTNPEVTHDPCNYHSHAGAREHRRGDQNPPSYLFCGLFGDPHLRTFKDNFQTCKVEGAWPLIDNNYLSVQVTNVPVVPGSSATATNKITIIFKAHHECTDQKVYQAVTDDLPAAFVDGTTSGGDSDAKSLRIVERESGHYVEMHARYIGTTVFVRQVGRYLTLAIRMPEDLAMSYEESQDLQLCVNGCPLSERIDDGQGQVSAILGHSLPRTSLVQAWPGYTLETANTQCHEKMPVKDIYFQSCVFDLLTTGDANFTAAAHSALEDVEALHPRKERWHIFPSSGN
B3: ITGB6 (protein, UniProt P18564 22-788, looked up)
Integrin beta-6: GCALGGAETCEDCLLIGPQCAWCAQENFTHPSGVGERCDTPANLLAKGCQLNFIENPVSQVEILKNKPLSVGRQKNSSDIVQIAPQSLILKLRPGGAQTLQVHVRQTEDYPVDLYYLMDLSASMDDDLNTIKELGSRLSKEMSKLTSNFRLGFGSFVEKPVSPFVKTTPEEIANPCSSIPYFCLPTFGFKHILPLTNDAERFNEIVKNQKISANIDTPEGGFDAIMQAAVCKEKIGWRNDSLHLLVFVSDADSHFGMDSKLAGIVIPNDGLCHLDSKNEYSMSTVLEYPTIGQLIDKLVQNNVLLIFAVTQEQVHLYENYAKLIPGATVGLLQKDSGNILQLIISAYEELRSEVELEVLGDTEGLNLSFTAICNNGTLFQHQKKCSHMKVGDTASFSVTVNIPHCERRSRHIIIKPVGLGDALELLVSPECNCDCQKEVEVNSSKCHHGNGSFQCGVCACHPGHMGPRCECGEDMLSTDSCKEAPDHPSCSGRGDCYCGQCICHLSPYGNIYGPYCQCDNFSCVRHKGLLCGGNGDCDCGECVCRSGWTGEYCNCTTSTDSCVSEDGVLCSGRGDCVCGKCVCTNPGASGPTCERCPTCGDPCNSKRSCIECHLSAAGQAREECVDKCKLAGATISEEEDFSKDGSVSCSLQGENECLITFLITTDNEGKTIIHSINEKDCPKPPNIPMIMLGVSLAILLIGVVLLCIWKLLVSFHDRKEVAKFEAERSKAKWQTGTNPLYRGSTSTFKNVTYKHREKQKVDLSTDC
B4: SCAMP3 (protein, UniProt O14828 1-347, looked up)
Secretory carrier-associated …: MAQSRDGGNPFAEPSELDNPFQDPAVIQHRPSRQYATLDVYNPFETREPPPAYEPPAPAPLPPPSAPSLQPSRKLSPTEPKNYGSYSTQASAAAATAELLKKQEELNRKAEELDRRERELQHAALGGTATRQNNWPPLPSFCPVQPCFFQDISMEIPQEFQKTVSTMYYLWMCSTLALLLNFLACLASFCVETNNGAGFGLSILWVLLFTPCSFVCWYRPMYKAFRSDSSFNFFVFFFIFFVQDVLFVLQAIGIPGWGFSGWISALVVPKGNTAVSVLMLLVALLFTGIAVLGIVMLKRIHSLYRRTGASFQKAQQEFAAGVFSNPAVRTAAANAAAGAAENAFRAP
B5: RASSF2 (protein, UniProt P50749 1-326, looked up)
Ras association …: MDYSHQTSLVPCGQDKYISKNELLLHLKTYNLYYEGQNLQLRHREEEDEFIVEGLLNISWGLRRPIRLQMQDDNERIRPPPSSSSWHSGCNLGAQGTTLKPLTVPKVQISEVDAPPEGDQMPSSTDSRGLKPLQEDTPQLMRTRSDVGVRRRGNVRTPSDQRRIRRHRFSINGHFYNHKTSVFTPAYGSVTNVRINSTMTTPQVLKLLLNKFKIENSAEEFALYVVHTSGEKQKLKATDYPLIARILQGPCEQISKVFLMEKDQVEEVTYDVAQYIKFEMPVLKSFIQKLQEEEDREVKKLMRKYTVLRLMIRQRLEEIAETPATI
B6: RTN4R (protein, UniProt Q9BZR6 27-447, looked up)
Reticulon-4 receptor: CPGACVCYNEPKVTTSCPQQGLQAVPVGIPAASQRIFLHGNRISHVPAASFRACRNLTILWLHSNVLARIDAAAFTGLALLEQLDLSDNAQLRSVDPATFHGLGRLHTLHLDRCGLQELGPGLFRGLAALQYLYLQDNALQALPDDTFRDLGNLTHLFLHGNRISSVPERAFRGLHSLDRLLLHQNRVAHVHPHAFRDLGRLMTLYLFANNLSALPTEALAPLRALQYLRLNDNPWVCDCRARPLWAWLQKFRGSSSEVPCSLPQRLAGRDLKRLAANDLQGCAVATGPYHPIWTGRATDEEPLGLPKCCQPDAADKASVLEPGRPASAGNALKGRVPPGDSPPGNGSGPRHINDSPFGTLPGSAEPPLTAVRPEGSEPPGFPTSGPRRRPGCSRKNRTRSHCRLGQAGSGGGGTGDSEGS
B7: PVALB (protein, UniProt P20472 2-110, looked up)
Parvalbumin alpha: SMTDLLNAEDIKKAVGAFSATDSFDHKKFFQMVGLKKKSADDVKKVFHMLDKDKSGFIEEDELGFILKGFSPDARDLSAKETKMLMAAGDKDGDGKIGVDEFSTLVAES
B8: SLAMF8 (protein, UniProt Q9P0V8 23-285, looked up)
SLAM family member 8: AQVLSKVGGSVLLVAARPPGFQVREAIWRSLWPSEELLATFFRGSLETLYHSRFLGRAQLHSNLSLELGPLESGDSGNFSVLMVDTRGQPWTQTLQLKVYDAVPRPVVQVFIAVERDAQPSKTCQVFLSCWAPNISEITYSWRRETTMDFGMEPHSLFTDGQVLSISLGPGDRDVAYSCIVSNPVSWDLATVTPWDSCHHEAAPGKASYKDVLLVVVPVSLLLMLVTLFSAWHWCPCSGKKKKDVHADRVGPETENPLVQDLP
B9: CLEC7A (protein, UniProt Q9BXN2 1-247, looked up)
C-type lectin domain family 7 …: MEYHPDLENLDEDGYTQLHFDSQSNTRIAVVSEKGSCAASPPWRLIAVILGILCLVILVIAVVLGTMAIWRSNSGSNTLENGYFLSRNKENHSQPTQSSLEDSVTPTKAVKTTGVLSSPCPPNWIIYEKSCYLFSMSLNSWDGSKRQCWQLGSNLLKIDSSNELGFIVKQVSSQPDNSFWIGLSRPQTEVPWLWEDGSTFSSNLFQIRTTATQENPSPNCVWIHVSVIYDQLCSVPSYSICEKKFSM
B10: SCGB3A2 (protein, UniProt Q96PL1 22-93, looked up)
Secretoglobin family 3A …: FLINKVPLPVDKLAPLPLDNILPFMDPLKLLLKTLGISVEHLVEGLRKCVNELGPEASEAVKKLLEALSHLV
B11: SCARF2 (protein, UniProt Q96GP6 44-871, looked up)
Scavenger receptor class F …: QELNPRGRNVCRAPGSQVPTCCAGWRQQGDECGIAVCEGNSTCSENEVCVRPGECRCRHGYFGANCDTKCPRQFWGPDCKELCSCHPHGQCEDVTGQCTCHARRWGARCEHACQCQHGTCHPRSGACRCEPGWWGAQCASACYCSATSRCDPQTGACLCHAGWWGRSCNNQCACNSSPCEQQSGRCQCRERTFGARCDRYCQCFRGRCHPVDGTCACEPGYRGKYCREPCPAGFYGLGCRRRCGQCKGQQPCTVAEGRCLTCEPGWNGTKCDQPCATGFYGEGCSHRCPPCRDGHACNHVTGKCTRCNAGWIGDRCETKCSNGTYGEDCAFVCADCGSGHCDFQSGRCLCSPGVHGPHCNVTCPPGLHGADCAQACSCHEDTCDPVTGACHLETNQRKGVMGAGALLVLLVCLLLSLLGCCCACRGKDPTRRPRPRRELSLGRKKAPHRLCGRFSRISMKLPRIPLRRQKLPKVVVAHHDLDNTLNCSFLEPPSGLEQPSPSWSSRASFSSFDTTDEGPVYCVPHEEAPAESRDPEVPTVPAEAPAPSPVPLTTPASAEEAIPLPASSDSERSASSVEGPGGALYARVARREARPARARGEIGGLSLSPSPERRKPPPPDPATKPKVSWIHGKHSAAAAGRAPSPPPPGSEAAPSPSKRKRTPSDKSAHTVEHGSPRTRDPTPRPPGLPEEATALAAPSPPRARARGRGPGLLEPTDAGGPPRSAPEAASMLAAELRGKTRSLGRAEVALGAQGPREKPAPPQKAKRSVPPASPARAPPATETPGPEKAATDLPAPETPRKKTPIQKPPRKKSREAAGELGRAGAPTL
B12: LAIR1 (protein, UniProt Q6GTX8 22-287, looked up)
Leukocyte-associated …: QEEDLPRPSISAEPGTVIPLGSHVTFVCRGPVGVQTFRLERDSRSTYNDTEDVSQASPSESEARFRIDSVREGNAGLYRCIYYKPPKWSEQSDYLELLVKESSGGPDSPDTEPGSSAGPTQRPSDNSHNEHAPASQGLKAEHLYILIGVSVVFLFCLLLLVLFCLHRQNQIKQGPPRSKDEEQKPQQRPDLAVDVLERTADKATVNGLPEKDRETDTSALAAGSSQEVTYAQLDHWALTQRTARAVSPQSTKPMAESITYAAVARH
B13: GLO1 (protein, UniProt Q04760 2-184, looked up)
Lactoylglutathione lyase: AEPQPPSGGLTDEAALSCCSDADPSTKDFLLQQTMLRVKDPKKSLDFYTRVLGMTLIQKCDFPIMKFSLYFLAYEDKNDIPKEKDEKIAWALSRKATLELTHNWGTEDDETQSYHNGNSDPRGFGHIGIAVPDVYSACKRFEELGVKFVKKPDDGKMKGLAFIQDPDGYWIEILNPNKMATLM
B14: FAM3B (protein, UniProt P58499 30-235, looked up)
Protein FAM3B: ELIPDAPLSSAAYSIRSIGERPVLKAPVPKRQKCDHWTPCPSDTYAYRLLSGGGRSKYAKICFEDNLLMGEQLGNVARGINIAIVNYVTGNVTATRCFDMYEGDNSGPMTKFIQSAAPKSLLFMVTYDDGSTRLNNDAKNAIEALGSKEIRNMKFRSSWVFIAAKGLELPSEIQREKINHSDAKNNRYSGWPAEIQIEGCIPKERS

Each molecule was assayed on plasma proteins (assay: Plasma proteins modulated between baseline and day 28 in responders (CR, VGPR, PR; n = 19), Example 6 (Table 13)). Settings: plasma protein (OLINK NPX); responders (CR, VGPR, PR; n = 19); itacitinib 200 mg or 300 mg QD with corticosteroids; day 28 vs baseline.
Format: in vivo, human
Method: Due to the limited sample size, steroid-naive (N=10) and steroid-refractory (N=18) patients were combined for further analysis. Broad proteomic analysis of over 1000 proteins was conducted by OLINK Proteomics (Watertown, MA) using a proximity extension assay as described by the manufacturer. Data are presented as normalized protein expression (NPX) in log 2 scale. Statistical differences were evaluated using unpaired and paired t tests, one-way […] (ANOVA), and Pearson Correlation. Significance was conferred when P<0.05.
Longitudinal differences in protein expression were analyzed by evaluating plasma samples from baseline/screening and day 28.

| Molecule | Fold Change, Decreased Expression from Baseline to Day 28 | Fold Change, Increased Expression from Baseline to Day 28 |
| --- | --- | --- |
| B1 | −1.3893 | – |
| B2 | – | 1.1254 |
| B3 | – | 1.152 |
| B4 | −1.7405 | – |
| B5 | −1.5477 | – |
| B6 | – | 1.195 |
| B7 | −2.0291 | – |
| B8 | −1.492 | – |
| B9 | −1.8103 | – |
| B10 | – | 1.3677 |
| B11 | – | 1.1639 |
| B12 | −1.3173 | – |
| B13 | −1.2571 | – |
| B14 | – | 1.7951 |

From patent publication US12099068B2, “Biomarkers for graft-versus-host disease” (Incyte Corporation, priority 2018, dated 2024)
